Data: publication PMC6929626, “PET/MRI enables simultaneous in vivo quantification of β-cell mass and function” (Theranostics, 2020)

Biological target: T1, GLP-1R (Mus musculus, UniProt O35659)
T1 construct: high expression level of glucagon-like-peptide-1 receptor (GLP-1R) on the surface of β-cells enables their specific detection and quantification in the native pancreas; from tissue; host or cells: pancreas and insulinomas of living control and RIP1-Tag2 mice
T1 sequence (O35659 22-463): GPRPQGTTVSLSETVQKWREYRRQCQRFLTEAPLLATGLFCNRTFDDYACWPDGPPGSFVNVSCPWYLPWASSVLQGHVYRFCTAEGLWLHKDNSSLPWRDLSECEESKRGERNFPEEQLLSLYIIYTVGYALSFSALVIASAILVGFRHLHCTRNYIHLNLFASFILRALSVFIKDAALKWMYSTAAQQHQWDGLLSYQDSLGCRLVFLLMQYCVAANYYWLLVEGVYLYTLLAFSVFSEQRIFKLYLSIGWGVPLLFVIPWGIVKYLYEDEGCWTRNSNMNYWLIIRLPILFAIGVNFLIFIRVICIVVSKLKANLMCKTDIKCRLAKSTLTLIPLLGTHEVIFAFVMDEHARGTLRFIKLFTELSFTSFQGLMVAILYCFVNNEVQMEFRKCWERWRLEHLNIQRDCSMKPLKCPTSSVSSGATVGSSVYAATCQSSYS
Design: species or system mice
Conditions: in vivo
Procedure: In brief, mice were fasted for 4-6 hours and anesthetized with 1-2% isoflurane/O2 gas mixture (Vetland, Louisville, KY, USA) before the in vivo measurements. A tail vein catheter was initially placed for the co-injection of 50 µL of tracer solution (0.12 MBq/g bodyweight) and 50 µL of MnCl2:Bicine solution (75 µmol/kg body weight). The animals were placed in supine position on the bed in order to attenuate the motion artifacts rising from the respiratory movements. Thus, [^64Cu]Ex4 and MnCl2 solution were co-injected i.v. as a bolus a few seconds after the beginning of dynamic PET measurements. […] PET quantification was performed by 20-min static frames acquired simultaneously with 7T MRI scanner using a compatible PET-insert or consecutively using an Inveon-PET scanner (Inveon Dedicated PET, Siemens Healthineers, Knoxville, TN, USA). […] During the acquisition, we monitored the breathing with an MR-compatible breathing sensor. […]
The volume of interest (VOI) for the entire pancreas (Pancreas^Control; Pancreas^RIP1-Tag2) and the detected insulinomas (Insulinomas^RIP1-Tag2) were manually drawn in Inveon Research Workplace (Siemens Heathineers) after co-registration of the PET images. […] The co-registered VOIs were exported and analyzed in MATLAB (R2013b; The MathWorks, Natick, MA, USA) using an in-house script. […] For the quantification, we considered voxels with R1 values between 0.4 and 10 s^-1. […]

Question: “[^64Cu]Cu-NODAGA-^40Lys-Exendin-4 [[^64Cu]Ex4]” was tested. Which “dynamic PET curve of pancreatic uptake” value did it give?
Answer: The value was “stable pancreatic uptake after 20 min until 1 h”.
